# Biological target: the molecule itself
# Test: cryo-EM structure; cryoET and subtomogram averaging of spikes on vitrified, chemically unfixed HCoV-NL63 virions in NTE buffer (20 mM Tris pH 8.0, 120 mM NaCl, 1 mM EDTA); 18,356 spike subvolumes; C3 symmetry imposed; focused classification of RBD and domain 0
protein,measurement,value
"human coronavirus NL63 (HCoV-NL63) spike glycoprotein (S) (natural protein, N-linked glycans at 39 N-glycosylation sites (among them N240, N354, N358, N426, N486, N506, N512, N749, N844, N852, N1111, N1196, N1201, N1218, N1242, N1247, N1277), Spike glycoprotein S of human coronavirus NL63 (virus from BEI Resources NR-470), full-length S in the viral envelope; not cleaved at S1/S2 (single band of about 250 kD); Native membrane-anchored trimer on virions; The model covers the crown, residues 1-1224; the stalk (1216-1297) is only a predicted model; also called S trimer; S protomer; source: no chemical fixation) CNSNANLSMLQLGVPDNSSTIVTGLLPTHWFCANQSTSVYSANGFFYIDVGNHRSAFALHTGYYDANQYYIYVTNEIGLNASVTLKICKFSRNTTFDFLSNASSSFDCIVNLLFTEQLGAPLGITISGETVRLHLYNVTRTFYVPAAYKLTKLSVKCYFNYSCVFSVVNATVTVNVTTHNGRVVNYTVCDDCNGYTDNIFSVQQDGRIPNGFPFNNWFLLTNGSTLVDGVSRLYQPLRLTCLWPVPGLKSSTGFVYFNATGSDVNCNGYQHNSVVDVMRYNLNFSANSLDNLKSGVIVFKTLQYDVLFYCSNSSSGVLDTTIPFGPSSQPYYCFINSTINTTHVSTFVGILPPTVREIVVARTGQFYINGFKYFDLGFIEAVNFNVTTASATDFWTVAFATFVDVLVNVSATNIQNLLYCDSPFEKLQCEHLQFGLQDGFYSANFLDDNVLPETYVALPIYYQHTDINFTATASFGGSCYVCKPHQVNISLNGNTSVCVRTSHFSIRYIYNRVKSGSPGDSSWHIYLKSGTCPFSFSKLNNFQKFKTICFSTVEVPGSCNFPLEATWHYTSYTIVGALYVTWSEGNSITGVPYPVSGIREFSNLVLNNCTKYNIYDYVGTGIIRSSNQSLAGGITYVSNSGNLLGFKNVSTGNIFIVTPCNQPDQVAVYQQSIIGAMTAVNESRYGLQNLLQLPNFYYVSNGGNNCTTAVMTYSNFGICADGSLIPVRPRNSSDNGISAIITANLSIPSNWTTSVQVEYLQITSTPIVVDCATYVCNGNPRCKNLLKQYTSACKTIEDALRLSAHLETNDVSSMLTFDSNAFSLANVTSFGDYNLSSVLPQRNIRSSRIAGRSALEDLLFSKVVTSGLGTVDVDYKSCTKGLSIADLACAQYYNGIMVLPGVADAERMAMYTGSLIGGMVLGGLTSAAAIPFSLALQARLNYVALQTDVLQENQKILAASFNKAINNIVASFSSVNDAITQTAEAIHTVTIALNKIQDVVNQQGSALNHLTSQLRHNFQAISNSIQAIYDRLDSIQADQQVDRLITGRLAALNAFVSQVLNKYTEVRGSRRLAQQKINECVKSQSNRYGFCGNGTHIFSIVNSAPDGLLFLHTVLLPTDYKNVKAWSGICVDGIYGYVLRQPNLVLYSDNGVFRVTSRVMFQPRLPVLSDFVQIYNCNVTFVNISRVELHTVIPDYVDVNKTLQEFAQNLPKYVKPNFDLTPFNLTYLNLSSELKQLEAKTASLFQTTVELQGLIDQINSTYVDLKLLNRFENYIKWPWWVWLIISVVFVVLLSLLVFCCLSTGCCGCCNCLTSSMRGCCDCGSTKLPYYEFEKVHVQ",stoichiometry N,3

# Source: article PMC10630519, “Structural insights into the modulation of coronavirus spike tilting and infectivity by hinge glycans” (Nature Communications, 2023)
